Data on 1 substance can be found in patent US5912224.

The experiment concerns the target TGF-β type I receptor of Mv1Lu cells (mink).

In turn, myristylated FKBP12 displayed a TGFβ induced 3TP-Luc luciferase activity in Mv1Lu cells of 25 fold.
